Measured values from patent US20220119534A1 (DRAGONFLY THERAPEUTICS, published 2022).
Numbering of substitutions follows the chain as printed. In names and notes the source's numbering stands. Several values for one entry are separate records, joined by “and”; a condition that tells them apart may be missing. Identical values can stand only once.

How the values were obtained:
mFc-hNKG2D [1] = target: T1, mFc-hNKG2D (human, UniProt P26718 73-216); assay: SPR Biacore 8K 37 C; mFc-hNKG2D captured on anti-mFc chip, TriNKET as analyte; steady state fit; control sample, n=2
T1 construct: extracellular domain; Made in house (Dragonfly Tx); the order of tag and ECD follows the name mFc-hNKG2D; also called mFc-tagged human NKG2D; not shown: mouse Fc tag
T1 sequence (looked up): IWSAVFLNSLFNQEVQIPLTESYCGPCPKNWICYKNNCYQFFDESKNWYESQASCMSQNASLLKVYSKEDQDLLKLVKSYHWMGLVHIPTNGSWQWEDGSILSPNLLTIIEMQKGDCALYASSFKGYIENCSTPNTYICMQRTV

mFc-hNKG2D [2] = target: T1, mFc-hNKG2D; assay: SPR Biacore 8K 37 C; mFc-hNKG2D captured on anti-mFc chip, TriNKET as analyte; steady state fit; after 4 wks 40 C in phosphate/citrate/NaCl pH 7.8, n=2
mFc-hNKG2D [3] = target: T1, mFc-hNKG2D; assay: SPR Biacore 8K 37 C; mFc-hNKG2D captured on anti-mFc chip, TriNKET as analyte; steady state fit; after 0.02% H2O2 24 h
[4] = target: T2, Human CLEC12A-His (recombinant, K244 WT) (human, UniProt Q5QGZ9 65-265); assay: SPR, two-state fit (kd1); control (fully purified protein study)
T2 construct: Made in house (Dragonfly Tx); also called hCLEC12A; hCLEC12A-His; not shown: His tag
T2 sequence: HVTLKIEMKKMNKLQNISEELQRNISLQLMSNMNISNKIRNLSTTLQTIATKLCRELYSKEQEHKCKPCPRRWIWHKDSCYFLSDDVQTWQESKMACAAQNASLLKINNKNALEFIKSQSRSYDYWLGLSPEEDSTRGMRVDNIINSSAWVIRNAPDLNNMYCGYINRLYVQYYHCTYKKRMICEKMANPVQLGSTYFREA

[5] = target: T2, Human CLEC12A-His (recombinant, K244 WT); assay: SPR 37C, two-state fit (ka1), average
[6] = target: T2, Human CLEC12A-His (recombinant, K244 WT); assay: SPR, two-state fit (kd1); after 4 wks 40C in HST pH 6.0
[7] = target: T3, Human CLEC12A expressed on cells (Ba/F3-hCLEC12A, PL21, HL60) (human, UniProt Q5QGZ9 1-265); assay: flow cytometry on Ba/F3-hCLEC12A cells
T3 construct: Ba/F3 cells transduced with human CLEC12A; PL21 and HL60 AML lines express it endogenously; also called cell surface expressed CLEC12A
T3 sequence: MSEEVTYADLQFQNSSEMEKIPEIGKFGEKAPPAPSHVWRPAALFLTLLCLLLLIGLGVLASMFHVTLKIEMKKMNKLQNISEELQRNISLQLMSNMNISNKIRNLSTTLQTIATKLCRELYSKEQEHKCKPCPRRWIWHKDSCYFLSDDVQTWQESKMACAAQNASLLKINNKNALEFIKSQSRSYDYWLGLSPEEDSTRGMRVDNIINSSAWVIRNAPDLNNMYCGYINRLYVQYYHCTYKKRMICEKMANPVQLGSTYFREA

[8] = target: T2, Human CLEC12A-His (recombinant, K244 WT); assay: SPR 37C, AB0089 captured on anti-hFc, two-state fit (kd1)
[9] = target: T3, Human CLEC12A expressed on cells …; assay: cell-based or functional assay
mFc-hNKG2D [10] = target: T4, mFc-hNKG2D (human, UniProt P26718 73-216); assay: SPR; sample after 4 weeks at 40 C in HST pH 6.0
T4 construct: extracellular domain; Recombinant mFc-tagged NKG2D dimer, made in house; also called human NKG2D; not shown: mouse Fc tag
T4 sequence (looked up): T1 sequence (looked up)

Human CLEC12A-His = target: T5, Human CLEC12A-His (human, UniProt Q5QGZ9 65-265); assay: SPR; sample after 4 weeks at 40 C in HST pH 6.0
T5 construct: Recombinant soluble protein made in house; also called hCLEC12A-His; hCLEC12A; not shown: His tag
T5 sequence: T2 sequence

Human CD16a V158 = target: T6, Human CD16a V158 (human, UniProt P08637 17-208, biotinylated); assay: SPR; sample after 4 weeks at 40 C in HST pH 6.0
T6 construct: Bought recombinant receptor; also called hCD16a (V158); hFcγRIIIa V158
T6 sequence (P08637 17-208 F176V limits assumed): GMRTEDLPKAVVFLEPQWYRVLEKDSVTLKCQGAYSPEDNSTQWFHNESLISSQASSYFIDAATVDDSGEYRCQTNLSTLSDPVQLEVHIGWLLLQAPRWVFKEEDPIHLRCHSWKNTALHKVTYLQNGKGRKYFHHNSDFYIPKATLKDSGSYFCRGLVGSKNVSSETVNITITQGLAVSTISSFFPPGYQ

[11] = target: T7, human CLEC12A on cells (HL60, PL21, Ba/F3-hCLEC12A) (human, UniProt Q5QGZ9 1-265); assay: flow cytometry, HL60 cells
T7 construct: Endogenous on the AML lines HL60 and PL21; brought into mouse Ba/F3 cells by retroviral transduction; The cell line stands under assay; also called CLL-1
T7 sequence: T3 sequence

[12] = target: T8, recombinant human CLEC12A-His (human, UniProt Q5QGZ9 65-265); assay: SPR 37C, average
T8 construct: also called hCLEC12A-His; hCLEC12A
T8 sequence: T2 sequence

[13] = target: T9, recombinant cynomolgus FcRn (cynomolgus monkey, UniProt Q8SPV9 24-297; Q8SPW0 21-119); assay: SPR 25C, pH 6.0, steady state; pH 6.0; second replicate
T9 construct: also called cFcRn; cyno FcRn
T9 sequence (Q8SPV9 24-297 limits assumed, chain 1 of 2): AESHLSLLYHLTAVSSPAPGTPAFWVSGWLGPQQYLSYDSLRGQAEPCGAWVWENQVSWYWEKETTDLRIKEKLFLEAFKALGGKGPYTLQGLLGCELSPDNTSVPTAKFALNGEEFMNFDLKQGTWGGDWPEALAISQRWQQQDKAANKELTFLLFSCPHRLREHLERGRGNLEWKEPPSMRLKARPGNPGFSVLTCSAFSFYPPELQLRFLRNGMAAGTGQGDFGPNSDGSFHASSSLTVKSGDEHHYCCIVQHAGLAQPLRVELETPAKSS
T9 sequence (Q8SPW0 21-119 limits assumed, chain 2 of 2): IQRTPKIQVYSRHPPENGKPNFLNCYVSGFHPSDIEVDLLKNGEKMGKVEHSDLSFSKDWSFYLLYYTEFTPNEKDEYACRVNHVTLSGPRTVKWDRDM

[14] = target: T9, recombinant cynomolgus FcRn; assay: SPR 25C, pH 6.0, steady state, average; pH 6.0; average of four replicates

B1: F3'-1602 TriNKET (bispecific antibody, human IgG1, kappa)
chain: QLQLQESGPGLVKPSETLSLTCTVSGFSLTNYGLHWIRQPPGKCLEWIGVIWSGGKTDYNPSLKSRVTISKDTSKNQFSLKLSSVQAADTAVYYCAKYDYDDSLDYWGQGTLVTVSSGGGGSGGGGSGGGGSGGGGSDIQMTQSPSSLSASVGDRVTITCHASQNINFWLSWYQQKPGKAPKLLIYEASNLHTGVPSRFSGSGSGTRFTLTISSLQPEDIATYYCQQSHSYPLTFGCGTKLEIKGSDKTHTCPPCPAPELLGGPSVFLFPPKPKDTLMISRTPEVTCVVVDVSHEDPEVKFNWYVDGVEVHNAKTKPREEQYNSTYRVVSVLTVLHQDWLNGKEYKCKVSNKALPAPIEKTISKAKGQPREPRVYTLPPCRDELTKNQVSLTCLVKGFYPSDIAVEWESNGQPENNYKTTPPVLVSDGSFTLYSKLTVDKSRWQQGNVFSCSVMHEALHNHYTQKSLSLSPG
heavy: EVQLVESGGGLVKPGGSLRLSCAASGFTFSSYSMNWVRQAPGKGLEWVSSISSSSSYIYYADSVKGRFTISRDNAKNSLYLQMNSLRAEDTAVYYCARGAPIGAAAGWFDPWGQGTLVTVSSASTKGPSVFPLAPSSKSTSGGTAALGCLVKDYFPEPVTVSWNSGALTSGVHTFPAVLQSSGLYSLSSVVTVPSSSLGTQTYICNVNHKPSNTKVDKKVEPKSCDKTHTCPPCPAPELLGGPSVFLFPPKPKDTLMISRTPEVTCVVVDVSHEDPEVKFNWYVDGVEVHNAKTKPREEQYNSTYRVVSVLTVLHQDWLNGKEYKCKVSNKALPAPIEKTISKAKGQPREPQVCTLPPSRDELTENQVSLTCLVKGFYPSDIAVEWESNGQPENNYKTTPPVLDSDGSFFLYSWLTVDKSRWQQGNVFSCSVMHEALHNHYTQKSLSLSPG
light: DIQMTQSPSSVSASVGDRVTITCRASQGISSWLAWYQQKPGKAPKLLIYAASSLQSGVPSRFSGSGSGTDFTLTISSLQPEDFATYYCQQGVSFPRTFGGGTKVEIKRTVAAPSVFIFPPSDEQLKSGTASVVCLLNNFYPREAKVQWKVDNALQSGNSQESVTEQDSKDSTYSLSSTLTLSKADYEKHKVYACEVTHQGLSSPVTKSFNRGEC
notes: Trispecific F3' format: CLEC12A scFv-Fc paired with NKG2D Fab-Fc; Stressed and control samples of the stability studies are the same molecule; also called AB0237
For B1, which Kd (mFc-hNKG2D [1]) is on record?
The Kd was 791 nM.

What about the Kd (mFc-hNKG2D [2]) of the same binder?
Its Kd is 872 nM.

And the Kd (mFc-hNKG2D [3])?
The Kd was 732 nM.

B2: AB0089 TriNKET (bispecific antibody, human IgG1, kappa)
chain: B1 chain with S53V, K56A, K71V, Y98G, D101G, S103T, R207D, I220F
heavy: B1 heavy
light: B1 light
notes: F3' format heterodimer of three chains; human IgG1 Fc with EW-RVT and Y349C/S354C mutations; also called AB0089 Lot AB0089-002; CLEC12A TriNKET AB0089
B2 was tested. Which koff [4] did it give?
The koff was 0.0272 s⁻¹.

And the kon [5]?
The kon was 1.04e+07 M⁻¹ s⁻¹.

What about the koff [6] of the same binder?
The koff was 0.0424 s⁻¹.

And the EC50 [7]?
The EC50 was 4.02 nM.

And the koff [8]?
The koff was 0.0426 s⁻¹ and 0.0449 s⁻¹ and 0.0432 s⁻¹.

And the “EC50, KHYG-1-CD16aV cytotoxicity assay; after pH 5.0, 40C, 2 wks” value [9]?
Its value is 0.16 nM.

And the “EC50, KHYG-1-CD16aV cytotoxicity assay; control sample” value [9]?
Its value is 0.11 nM.

B3: AB0192 TriNKET (other)
chain: EVQLVESGGGVVQPGGSLRLSCAASGFTFNAFGMHWVRQAPGKCLEWVAFISSGSTSIYYANTVKGRFTISRDNSKNTLYLQMNSLRAEDTAVYYCARDGYPTGGAMDYWGQGTSVTVSSGGGGSGGGGSGGGGSGGGGSDIQMTQSPSSLSASVGDRVTITCKASQDIYNYLSWFQQKPGKAPKPLIYRANILVSGVPSRFSGSGSGQDYTFTISSLQPEDIATYYCLQFDAFPFTFGCGTKLEIKGSDKTHTCPPCPAPELLGGPSVFLFPPKPKDTLMISRTPEVTCVVVDVSHEDPEVKFNWYVDGVEVHNAKTKPREEQYNSTYRVVSVLTVLHQDWLNGKEYKCKVSNKALPAPIEKTISKAKGQPREPRVYTLPPCRDELTKNQVSLTCLVKGFYPSDIAVEWESNGQPENNYKTTPPVLVSDGSFTLYSKLTVDKSRWQQGNVFSCSVMHEALHNHYTQKSLSLSPG
heavy: B1 heavy
light: B1 light
notes: the condition stands under assay; also called AB0192 Lot AB0192-005
With B3 as the binder, how does the Kd (mFc-hNKG2D [10]) read?
Its Kd is 602 nM.

And the koff (mFc-hNKG2D [10])?
The koff was 0.127 s⁻¹.

And the kon (mFc-hNKG2D [10])?
The kon was 211000 M⁻¹ s⁻¹.

What about the Kd (Human CLEC12A-His) of the same binder?
Its Kd is 1.81 nM.

What about the koff (Human CLEC12A-His) of the same binder?
Its koff is 0.0014 s⁻¹.

And the kon (Human CLEC12A-His)?
Its kon is 776000 M⁻¹ s⁻¹.

And the Kd (Human CD16a V158)?
Its Kd is 194 nM.

And the koff (Human CD16a V158)?
The koff was 0.0201 s⁻¹.

What about the kon (Human CD16a V158) of the same binder?
The kon was 103000 M⁻¹ s⁻¹.

What about the EC50 [11] of the same binder?
The EC50 was 0.61 nM.

And the “FOB (fold over background)” value [11]?
The value was 42 fold.

B4: F3'-1602 TriNKET (other)
chain: B1 chain
heavy: B1 heavy
light: B1 light
notes: CLEC12A scFv-Fc, NKG2D A49MI Fab-Fc, human IgG1 Fc; also called AB0237
For B4, which Kd [12] is on record?
Its Kd is 1.2 nM.

And the koff [12]?
Its koff is 0.000933 s⁻¹.

What about the kon [12] of the same binder?
Its kon is 779000 M⁻¹ s⁻¹.

And the Kd [13]?
The Kd was 1100 nM.

And the Kd [14]?
The Kd was 1300 nM.
